The assay addresses sfGFP^204SCO (Aequorea victoria) [GFP: P42212]. Description: FRET or BRET; steady state emission of the covalently SPAAC-linked GFVen^204 dimer, excitation at 450 nm; relative efficiency from donor and acceptor intensities (Equation 3) after deconvolution.

Substance “Venus^204azF (from UniProt P42212 2-238) (natural protein)” showed an FRET efficiency allowing for variation in quantum yield of 85 to 91% and a relative FRET efficiency of 87%.

The values above are taken from paper PMC7788595.
